US20250277018A1 (published 2025)

Experiments:
[1] = target: 4A01v5; assay: ELISA
[2] = target: 4A01v3; assay: ELISA
[3] = target: 4A01v6; assay: ELISA
[4] = target: 4A01v4; assay: ELISA
[5] = target: 4A01v1; assay: ELISA
[6] = target: 4A01v3-3; assay: ELISA
[7] = target: 4A01v3-1; assay: ELISA
[8] = target: 4A01v9; assay: ELISA
[9] = target: 4A01v3-7; assay: ELISA
[10] = target: 4A01v3-8; assay: ELISA
[11] = target: 4A01v3-4; assay: ELISA
[12] = target: 4A01v3-5; assay: ELISA
[13] = target: T1, Rat serum albumin; assay: ELISA
T1 chain: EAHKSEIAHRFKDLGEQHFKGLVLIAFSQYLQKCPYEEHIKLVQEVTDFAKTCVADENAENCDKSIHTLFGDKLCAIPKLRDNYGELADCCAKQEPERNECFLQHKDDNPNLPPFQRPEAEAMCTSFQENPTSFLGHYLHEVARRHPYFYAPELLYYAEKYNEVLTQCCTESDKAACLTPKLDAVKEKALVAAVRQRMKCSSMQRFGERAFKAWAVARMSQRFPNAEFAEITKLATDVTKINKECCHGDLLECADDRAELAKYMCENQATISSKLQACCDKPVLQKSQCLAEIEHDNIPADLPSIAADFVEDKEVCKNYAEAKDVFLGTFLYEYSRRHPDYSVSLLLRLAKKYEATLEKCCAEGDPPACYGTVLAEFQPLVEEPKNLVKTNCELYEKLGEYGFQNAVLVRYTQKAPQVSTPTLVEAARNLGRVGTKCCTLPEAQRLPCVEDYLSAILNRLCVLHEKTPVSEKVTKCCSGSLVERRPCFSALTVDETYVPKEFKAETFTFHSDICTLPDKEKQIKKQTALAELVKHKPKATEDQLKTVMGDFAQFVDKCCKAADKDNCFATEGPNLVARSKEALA

[14] = target: Murine serum albumin; assay: ELISA
[15] = target: T2, Cynomolgus monkey serum albumin; assay: ELISA
T2 chain: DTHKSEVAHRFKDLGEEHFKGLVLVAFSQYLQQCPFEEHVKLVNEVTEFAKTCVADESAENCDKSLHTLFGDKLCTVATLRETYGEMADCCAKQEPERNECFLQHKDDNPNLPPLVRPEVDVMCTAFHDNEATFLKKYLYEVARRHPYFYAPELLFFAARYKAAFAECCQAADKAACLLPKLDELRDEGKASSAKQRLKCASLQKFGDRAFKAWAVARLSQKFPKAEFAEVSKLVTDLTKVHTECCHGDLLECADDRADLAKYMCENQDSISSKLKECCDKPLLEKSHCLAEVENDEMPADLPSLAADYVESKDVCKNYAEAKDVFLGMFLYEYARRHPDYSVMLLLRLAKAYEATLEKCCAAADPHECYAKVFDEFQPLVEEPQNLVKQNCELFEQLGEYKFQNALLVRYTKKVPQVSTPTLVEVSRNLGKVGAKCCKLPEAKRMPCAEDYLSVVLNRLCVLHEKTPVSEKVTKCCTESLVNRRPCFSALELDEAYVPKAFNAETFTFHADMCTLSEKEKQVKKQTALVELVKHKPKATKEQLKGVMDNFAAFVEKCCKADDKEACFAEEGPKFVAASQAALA

[16] = target: Human serum albumin; assay: ELISA; pH 7.4

Sequence of Murine serum albumin (chain, as listed by the source): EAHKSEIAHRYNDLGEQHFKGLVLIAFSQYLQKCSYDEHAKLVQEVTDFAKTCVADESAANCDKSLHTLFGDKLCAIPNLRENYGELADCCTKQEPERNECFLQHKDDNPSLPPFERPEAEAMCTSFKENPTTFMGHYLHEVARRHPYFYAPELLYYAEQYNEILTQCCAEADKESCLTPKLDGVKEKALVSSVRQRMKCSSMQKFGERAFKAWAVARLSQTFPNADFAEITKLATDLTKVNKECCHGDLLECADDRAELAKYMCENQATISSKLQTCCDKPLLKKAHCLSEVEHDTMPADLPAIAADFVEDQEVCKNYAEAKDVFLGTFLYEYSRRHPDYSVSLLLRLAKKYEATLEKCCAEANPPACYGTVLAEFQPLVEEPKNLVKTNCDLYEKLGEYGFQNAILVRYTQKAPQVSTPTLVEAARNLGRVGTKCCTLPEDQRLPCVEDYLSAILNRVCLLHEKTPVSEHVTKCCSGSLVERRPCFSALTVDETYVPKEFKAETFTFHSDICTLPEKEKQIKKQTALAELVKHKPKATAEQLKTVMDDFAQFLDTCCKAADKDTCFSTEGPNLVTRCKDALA

B1: cy (other)
chain: DTHKSEVAHRFKDLGEEHFKGLVLVAFSQYLQQCPFEEHVKLVNEVTEFAKTCVADESAENCDKSLHTLFGDKLCTVATLRETYGEMADCCAKQEPERNECFLQHKDDNPNLPPLVRPEVDVMCTAFHDNEATFLKKYLYEVARRHPYFYAPELLFFAARYKAAFAECCQAADKAACLLPKLDELRDEGKASSAKQRLKCASLQKFGDRAFKAWAVARLSQKFPKAEFAEVSKLVTDLTKVHTECCHGDLLECADDRADLAKYMCENQDSISSKLKECCDKPLLEKSHCLAEVENDEMPADLPSLAADYVESKDVCKNYAEAKDVFLGMFLYEYARRHPDYSVMLLLRLAKAYEATLEKCCAAADPHECYAKVFDEFQPLVEEPQNLVKQNCELFEQLGEYKFQNALLVRYTKKVPQVSTPTLVEVSRNLGKVGAKCCKLPEAKRMPCAEDYLSVVLNRLCVLHEKTPVSEKVTKCCTESLVNRRPCFSALELDEAYVPKAFNAETFTFHADMCTLSEKEKQVKKQTALVELVKHKPKATKEQLKGVMDNFAAFVEKCCKADDKEACFAEEGPKFVAASQAALA
B1 was tested, and the Kd [1] was 203 pM, the Kd [2] was 338 pM and the Kd [3] was 225 pM. The Kd [4] was 247 pM, the Kd [5] was 157 pM and the Kd [6] was 142 pM. It also gave a Kd [7] of 127 pM, a Kd [8] of 117 pM and a Kd [9] of 118 pM. The Kd [10] was 147 pM, the Kd [11] was 181 pM and the Kd [12] was 126 pM.

B2: cx5009, hz4A01v51 VHH-hIgG1-xELL-NNT-Fc (VHH)
VHH: EVQLVESGGGEVQPGGSLRLSCAASGFTFSTSGMVWVRQAPGKGLEWVSTISDDARITVYAESVKGRFTISRDNAKNTVYLQMNSLRAEDTAVYYCATYRAGSRIGSYEDYYRGQGTLVTVKP
Binder B2 has a Kd [13] of 234 pM, a Kd [14] of 207 pM and a Kd [15] of 189 pM.

B3: cx12583 (VHH)
chain: GGGGDKTHTCPPCPAPGGPSVFLFPPKPKDTLMISRTPEVTCVVVDVSHEDPEVKFNWYVDGVEVHNAKTKPREEQYNSTYRVVSVLTVLHQDWLNGKEYKCKVSNKALPAPIEKTISKAKGQPREPQVYTLPPSRDELTKNQVSLTCLVKGFYPSDIAVEWESNGQPENNYKTTPPVLDSDGSFFLYSKLTVDKSRWQQGNVFSCSVMHEALHNHYTQKSLSLSPGSGGGSEVQLVESGGGEVQPGGSLRLSCAASGFTFSTSGMVWVRQAPGKGLEWVSTISDDARITVYAESVKGRFTISRDNAKNTVYLQMNSLRAEDTAVYYCATYRAGSRIGSYEDYYRGQGTLVTVKP
Binder B3 has a Kd [16] of 126 pM.

B4: cx12596 (bispecific antibody)
heavy: EVQLVESGGGLEQPGGSLRLSCAGSGFTFRDYAMTWVRQAPGKGLEWVSSISGSGGNTYYADSVKGRFTISRDNSKNTLYLQMNSLRAEDTAVYYCAKDRLSITIRPRYYGLDVWGQGTTVTVSSASTKGPSVFPLAPCSRSTSESTAALGCLVKDYFPEPVTVSWNSGALTSGVHTFPAVLQSSGLYSLSSVVTVPSSSLGTKTYTCNVDHKPSNTKVDKRVGGSGGSEVQLVESGGGEVQPGGSLRLSCAASGFTFSTSGMVWVRQAPGKGLEWVSTISDDARITVYAESVKGRFTISRDNAKNTVYLQMNSLRAEDTAVYYCATYRAGSRIGSYEDYYRGQGTLVTVKPGGGGDKTHTCPPCPAPGGPSVFLFPPKPKDTLMISRTPEVTCVVVDVSHEDPEVKFNWYVDGVEVHNAKTKPREEQYNSTYRVVSVLTVLHQDWLNGKEYKCKVSNKALPAPIEKTISKAKGQPREPQVYTLPPSRDELTKNQVSLTCLVKGFYPSDIAVEWESNGQPENNYKTTPPVLDSDGSFFLYSKLTVDKSRWQQGNVFSCSVMHEALHNHYTQKSLSLSP
light: DIVMTQSPLSLPVTPGEPASISCRSSQSLLYSIGYNYLDWYLQKSGQSPQLLIYLGSNRASGVPDRFSGSGSGTDFTLKISRVEAEDVGFYYCMQALQTPYTFGQGTKLEIKRTVAAPSVFIFPPSDEQLKSGTASVVCLLNNFYPREAKVQWKVDNALQSGNSQESVTEQDSKDSTYSLSSTLTLSKADYEKHKVYACEVTHQGLSSPVTKSENRGEC
With B4 the Kd [16] was 12.2 pM.

B5: cx12595 (bispecific antibody)
heavy: EVQLVESGGGLEQPGGSLRLSCAGSGFTFRDYAMTWVRQAPGKGLEWVSSISGSGGNTYYADSVKGRFTISRDNSKNTLYLQMNSLRAEDTAVYYCAKDRLSITIRPRYYGLDVWGQGTTVTVSSASTKGPSVFPLAPCSRSTSESTAALGCLVKDYFPEPVTVSWNSGALTSGVHTFPAVLQSSGLYSLSSVVTVPSSSLGTKTYTCNVDHKPSNTKVDKRVGGSGGSEVQLVESGGGEVQPGGSLRLSCAASGFTFSTSGMVWVRQAPGKGLEWVSTISDDARITVYAESVKGRFTISRDNAKNTVYLQMNSLRAEDTAVYYCATYRAGSRIGSYEDYYRGQGTLVTVKPGGGGESKYGPPCPPCPAPEFLGGPSVFLFPPKPKDTLYISRTPEVTCVVVDVSQEDPEVQFNWYVDGVEVHNAKTKPREEQFNSTYRVVSVLTVLHQDWLNGKEYKCKVSNKGLPSSIEKTISKAKGQPREPQVYTLPPSQEEMTKNQVSLTCLVKGFYPSDIAVEWESNGQPENNYKTTPPVLDSDGSFFLYSRLTVDKSRWQEGNVFSCSVVHEALHNHYTQKSLSLSLG
light: DIVMTQSPLSLPVTPGEPASISCRSSQSLLYSIGYNYLDWYLQKSGQSPQLLIYLGSNRASGVPDRFSGSGSGTDFTLKISRVEAEDVGFYYCMQALQTPYTFGQGTKLEIKRTVAAPSVFIFPPSDEQLKSGTASVVCLLNNFYPREAKVQWKVDNALQSGNSQESVTEQDSKDSTYSLSSTLTLSKADYEKHKVYACEVTHQGLSSPVTKSENRGEC
B5 showed a Kd [16] of 32.6 pM.

B6: cx12594 (bispecific antibody)
heavy: EVQLVESGGGLEQPGGSLRLSCAGSGFTFRDYAMTWVRQAPGKGLEWVSSISGSGGNTYYADSVKGRFTISRDNSKNTLYLQMNSLRAEDTAVYYCAKDRLSITIRPRYYGLDVWGQGTTVTVSSASTKGPSVFPLAPCSRSTSESTAALGCLVKDYFPEPVTVSWNSGALTSGVHTFPAVLQSSGLYSLSSVVTVPSSSLGTKTYTCNVDHKPSNTKVDKRVESKYGPPCPPCPAPEFLGGPSVFLFPPKPKDTLYISRTPEVTCVVVDVSQEDPEVQFNWYVDGVEVHNAKTKPREEQFNSTYRVVSVLTVLHQDWLNGKEYKCKVSNKGLPSSIEKTISKAKGQPREPQVYTLPPSQEEMTKNQVSLTCLVKGFYPSDIAVEWESNGQPENNYKTTPPVLDSDGSFFLYSRLTVDKSRWQEGNVFSCSVVHEALHNHYTQKSLSLSLGGSGGSEVQLVESGGGEVQPGGSLRLSCAASGFTFSTSGMVWVRQAPGKGLEWVSTISDDARITVYAESVKGRFTISRDNAKNTVYLQMNSLRAEDTAVYYCATYRAGSRIGSYEDYYRGQGTLVTVKP
light: DIVMTQSPLSLPVTPGEPASISCRSSQSLLYSIGYNYLDWYLQKSGQSPQLLIYLGSNRASGVPDRFSGSGSGTDFTLKISRVEAEDVGFYYCMQALQTPYTFGQGTKLEIKRTVAAPSVFIFPPSDEQLKSGTASVVCLLNNFYPREAKVQWKVDNALQSGNSQESVTEQDSKDSTYSLSSTLTLSKADYEKHKVYACEVTHQGLSSPVTKSENRGEC
With B6 the Kd [16] was 118 pM.

B7: cx12584 (VHH)
chain: GGGGDKTHTCPPCPAPGGPSVFLFPPKPKDTLMISRTPEVTCVVVDVSHEDPEVKFNWYVDGVEVHNAKTKPREEQYNSTYRVVSVLTVLHQDWLNGKEYKCKVSNKALPAPIEKTISKAKGQPREPQVYTLPPSRDELTKNQVSLTCLVKGFYPSDIAVEWESNGQPENNYKTTPPVLDSDGSFFLYSKLTVDKSRWQQGNVFSCSVMHEALHNHYTQKSLSLSPGGGSGGGSGGGSEVQLVESGGGEVQPGGSLRLSCAASGFTFSTSGMVWVRQAPGKGLEWVSTISDDARITVYAESVKGRFTISRDNAKNTVYLQMNSLRAEDTAVYYCATYRAGSRIGSYEDYYRGQGTLVTVKP
For B7, the Kd [16] was 81.3 pM.
